Measured values reported in patent US7122624B2, “Parathyroid hormone receptor ligands” (The United States of America as represented by the …, priority 1999, dated 2006).

Assays:
human PTH2 receptor = biological target: T1, human PTH2 receptor (Homo sapiens, UniProt P49190); test: cAMP accumulation in COS-7 cells transiently expressing the human PTH2 receptor; type: cell-based; details: COS-7
T1 construct: expressed in transfected cells; host or cells: COS-7 (transient)
Excerpt: (§1) Cell culture supplies were obtained from Life Technologies (Frederick, Md.) except for fetal bovine serum which was from Sigma (St. Louis, Mo.).
(§2) The constructs containing the cDNA sequences of the human PTH2 receptor and β-galactosidase have been previously described.
(§3) All peptides were purchased from either Bachem (Torrance, Calif.) or Peninsula Laboratories (Belmont, Calif.). The letters ‘b,’ ‘r’ and ‘h’ designate the peptide sequence as bovine, rat and human, respectively. […] [α-^32P]dCTP was purchased from ICN Biomedicals (Costa Mesa, Calif.). Bovine hypothalamic extract was prepared by acid extraction, gel-filtration and reverse-phase HPLC as previously described. […] Antagonist inhibitory potency was examined by measuring the concentration-dependence of rPTH(1–34)-stimulated cAMP accumulation in the presence and absence of antagonist.
(§4) Statistical comparison of two sample means was evaluated using the two-tailed Student's t-test. […] Antagonist inhibitory potency was quantified using the pA2, value, the negative logarithm of the concentration of antagonist that produces a two-fold decrease of agonist EC50. This was calculated using the following equation: pA2=((EC50/EC50′)−1)−log [antagonist]

rat PTH2 receptor = biological target: T2, rat PTH2 receptor (Rattus norvegicus, UniProt P70555); test: cAMP accumulation in COS-7 cells transiently expressing the rat PTH2 receptor; type: cell-based
T2 construct: expressed in transfected cells; host or cells: COS-7 (transient)
Method: To express rat PTH2 receptor in cell culture, a rat hypothalamus cDNA library was prepared in the vector CDM7 amp as described. […] A clone was isolated from a single positive pool by colony hybridization using the same ^32P labeled probe.
as §1, §2, §3, §4

T1 sequence (P49190 25-550): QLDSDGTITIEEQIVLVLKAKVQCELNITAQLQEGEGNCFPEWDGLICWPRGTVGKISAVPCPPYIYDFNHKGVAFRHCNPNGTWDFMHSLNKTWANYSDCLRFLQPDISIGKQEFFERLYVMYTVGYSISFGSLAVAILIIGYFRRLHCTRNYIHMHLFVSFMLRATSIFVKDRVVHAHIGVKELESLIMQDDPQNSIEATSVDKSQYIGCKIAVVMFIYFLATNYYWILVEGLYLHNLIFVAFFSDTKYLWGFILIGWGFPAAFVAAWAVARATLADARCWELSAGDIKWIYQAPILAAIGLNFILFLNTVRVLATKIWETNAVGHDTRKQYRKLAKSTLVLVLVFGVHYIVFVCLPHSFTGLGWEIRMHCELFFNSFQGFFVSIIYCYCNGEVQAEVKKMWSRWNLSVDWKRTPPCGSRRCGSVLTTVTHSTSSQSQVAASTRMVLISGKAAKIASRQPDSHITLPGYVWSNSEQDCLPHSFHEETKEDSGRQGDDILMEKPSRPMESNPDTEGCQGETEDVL
T2 sequence (P70555 25-546): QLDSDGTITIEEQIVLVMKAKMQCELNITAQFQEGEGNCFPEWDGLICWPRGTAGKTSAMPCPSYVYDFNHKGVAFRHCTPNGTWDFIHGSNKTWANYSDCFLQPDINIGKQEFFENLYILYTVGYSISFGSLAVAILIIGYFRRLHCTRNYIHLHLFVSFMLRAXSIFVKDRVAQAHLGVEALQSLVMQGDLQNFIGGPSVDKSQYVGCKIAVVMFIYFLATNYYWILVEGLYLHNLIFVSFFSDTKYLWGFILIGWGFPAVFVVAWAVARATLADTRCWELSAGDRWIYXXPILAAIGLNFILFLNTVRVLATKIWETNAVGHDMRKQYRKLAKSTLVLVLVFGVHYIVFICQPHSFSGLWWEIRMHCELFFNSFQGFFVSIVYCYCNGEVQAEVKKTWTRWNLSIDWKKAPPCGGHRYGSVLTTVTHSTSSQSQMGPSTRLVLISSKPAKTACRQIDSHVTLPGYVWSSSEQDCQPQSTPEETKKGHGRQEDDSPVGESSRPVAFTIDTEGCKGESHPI

EC50 (human PTH2 receptor; activation of adenylyl cyclase, figures in brackets): 0.58 nM
−logEC50 (human PTH2 receptor; activation of adenylyl cyclase, mean ± s.e.m. of three or four experiments): 9.24 ± 0.05
Emax, % of response to 1 μM hPTH(1-34) (human PTH2 receptor; intrinsic activity): 98 ± 4%
EC50 (rat PTH2 receptor; activation of adenylyl cyclase, COS-7, figures in brackets): 19 nM
−logEC50 (rat PTH2 receptor; activation of adenylyl cyclase, COS-7, mean ± s.e.m. of three or four experiments): 7.72 ± 0.12
Emax, % of response of rPTH2r to 3 μM rPTH(1-34) (rat PTH2 receptor; intrinsic activity, COS-7): 97 ± 5%
Emax, % of response of hPTH2r to 1 μM hPTH(1-34) (rat PTH2 receptor; rat receptor response relative to human PTH2 receptor response measured in parallel): 28 ± 4%
B1: rPTH(1-84): rat full-length parathyroid hormone (1–84), purchased (peptide)
peptide: AVSEIQLMHNLGKHLASVERMQWLRKKLQDVHNFVSLGVQMAAREGSYQRPTKKEENVLVDGNSKSLGEGDKADVDVLVKAKSQ
